Consider one molecule from doi:10.1101/124255.

The assay concerns the target dynein-dynactin-BicD2N (DDB) complex (mouse | rat (endogenous in rat brain cytosol)) (UniProt Q921C5). The assay is described as follows: multicolor single-molecule TIRF microscopy.

Where only a bound is given, the exact number is not on record here.

UniProt Q921C5, sequence (Q921C5 whole entry, looked up, one chain of several): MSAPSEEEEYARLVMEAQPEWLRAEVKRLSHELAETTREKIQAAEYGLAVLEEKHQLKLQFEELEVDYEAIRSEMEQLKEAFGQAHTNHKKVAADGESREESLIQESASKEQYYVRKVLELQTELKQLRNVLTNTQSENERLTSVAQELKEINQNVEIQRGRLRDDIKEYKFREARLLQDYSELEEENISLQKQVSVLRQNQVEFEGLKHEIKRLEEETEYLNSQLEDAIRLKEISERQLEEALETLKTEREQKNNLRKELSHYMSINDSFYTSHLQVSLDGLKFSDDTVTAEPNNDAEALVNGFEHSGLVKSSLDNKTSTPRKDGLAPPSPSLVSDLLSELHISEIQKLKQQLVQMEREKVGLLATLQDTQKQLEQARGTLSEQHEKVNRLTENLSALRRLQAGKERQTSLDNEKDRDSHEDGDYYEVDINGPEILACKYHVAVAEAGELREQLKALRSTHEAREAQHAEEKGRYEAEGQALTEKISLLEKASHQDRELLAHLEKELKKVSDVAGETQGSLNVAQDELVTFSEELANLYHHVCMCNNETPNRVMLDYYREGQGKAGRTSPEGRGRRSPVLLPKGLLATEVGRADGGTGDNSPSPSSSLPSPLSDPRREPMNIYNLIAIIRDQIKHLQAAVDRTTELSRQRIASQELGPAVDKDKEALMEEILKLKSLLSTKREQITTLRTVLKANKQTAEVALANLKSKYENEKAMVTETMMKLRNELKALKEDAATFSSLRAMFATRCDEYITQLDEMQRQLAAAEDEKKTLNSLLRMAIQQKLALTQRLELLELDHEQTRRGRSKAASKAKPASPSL

B1: Rattus norvegicus LIS1 (PAFAH1b1), StrepII-SNAPf tagged, wild type (natural protein)
chain: MVLSQRQRDELNRAIADYLRSNGYEEAYSVFKKEAELDMNEELDKKYAGLLEKKWTSVIRLQKKVMELESKLNEAKEEFTSGGPLGQKRDPKEWIPRPPEKYALSGHRSPVTRVIFHPVFSVMVSASEDATIKVWDYETGDFERTLKGHTDSVQDISFDHSGKLLASCSADMTIKLWDFQGFECIRTMHGHDHNVSSVAIMPNGDHIVSASRDKTIKMWEVQTGYCVKTFTGHREWVRMVRPNQDGTLIASCSNDQTVRVWVVATKECKAELREHEHVVECISWAPESSYSSISEATGSETKKSGKPGPFLLSGSRDKTIKMWDVSTGMCLMTLVGHDNWVRGVLFHSGGKFILSCADDKTLRVWDYKNKRCMKTLNAHEHFVTSLDFHKTAPYVVTGSVDQTVKVWECR
modifications: SNAP dye (SNAP-Alexa 647 or SNAP-Surface 488) covalently on the SNAP tag
Molecule B1 had a percent of DDB-L complexes with both 647- and 488-SNAP LIS1 of 8%; a percent of DDB-L complexes with two LIS1 dimers of under 24%; a percent of diffusive DDB complexes with a bound LIS1 of 34%; a percent of processive DDB complexes with a bound LIS1 of 18%. Besides, the stoichiometry N (LIS1 dimer per DDB) was 1 and the stoichiometry N (LIS1 dimers per DDB) was 2.
